# From patent US20240398920A1 (CYTOMX THERAPEUTICS, published 2024)
# Like-named read-outs stand apart in the source and are kept apart here.
# T1: human herpes virus entry mediator (HVEM) (human, UniProt Q92956 39-283)
# T1 sequence (looked up): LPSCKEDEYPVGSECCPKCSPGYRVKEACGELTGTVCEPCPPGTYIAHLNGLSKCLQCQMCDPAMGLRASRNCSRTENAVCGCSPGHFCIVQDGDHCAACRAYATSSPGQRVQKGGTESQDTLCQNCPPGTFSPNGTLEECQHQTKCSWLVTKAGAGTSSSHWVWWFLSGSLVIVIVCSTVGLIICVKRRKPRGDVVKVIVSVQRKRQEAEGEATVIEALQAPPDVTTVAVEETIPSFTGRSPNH
# B1: ProC_mLm16_1490_LIGHT-10GS-Strep (ProC1192) (other)
# chain: QGQSGSRHPCRHDPHIICYKFGGGSSGGSISSGLLSGRSDNIGGSQERRSHEVNPAAHLTGANSSLTGSGGPLLWETQLGLAFLRGLSYHDGALVVTKAGYYYIYSKVQLGGVGCPLGLASTITHGLYKRTPRYPEELELLVSQQSPCGRATSSSRVWWDSSFLGGVVHLEAGEEVVVRVLDERLVRLRDGTRSYFGAFMVSGGGSGGGSGSAWSHPQFEK
# B2: ProC_LIGHT-10GS-His (ProC1189) (ligand)
# chain: QERRSHEVNPAAHLTGANSSLTGSGGPLLWETQLGLAFLRGLSYHDGALVVTKAGYYYIYSKVQLGGVGCPLGLASTITHGLYKRTPRYPEELELLVSQQSPCGRATSSSRVWWDSSFLGGVVHLEAGEEVVVRVLDERLVRLRDGTRSYFGAFMVSGGGSGGGSGHHHHHH
# B3: ProC1192 + uPa (ligand, not shown: small tags and cut ends)
# chain: GGSQERRSHEVNPAAHLTGANSSLTGSGGPLLWETQLGLAFLRGLSYHDGALVVTKAGYYYIYSKVQLGGVGCPLGLASTITHGLYKRTPRYPEELELLVSQQSPCGRATSSSRVWWDSSFLGGVVHLEAGEEVVVRVLDERLVRLRDGTRSYFGAFMVSGGGSGGGSGSAWSHPQFEK
# B4: LIGHT-10GS-Strep (ProC1188) (ligand)
# chain: QERRSHEVNPAAHLTGANSSLTGSGGPLLWETQLGLAFLRGLSYHDGALVVTKAGYYYIYSKVQLGGVGCPLGLASTITHGLYKRTPRYPEELELLVSQQSPCGRATSSSRVWWDSSFLGGVVHLEAGEEVVVRVLDERLVRLRDGTRSYFGAFMVSGGGSGGGSGSAWSHPQFEK
# What was measured:
# Assay in all cases: cell-based or functional assay
# [1] = molecular target: T2, human lymphotoxin beta receptor (LTbR) (human, UniProt P36941 31-435)
# [2] = molecular target: T1, human herpes virus entry mediator (HVEM)
# [3] = molecular target: T1, human herpes virus entry mediator (HVEM); remark: listed apart in the source
# [4] = molecular target: T1, human herpes virus entry mediator (HVEM); remark: listed apart in the source
# [5] = molecular target: T1, human herpes virus entry mediator (HVEM); remark: listed apart in the source
# [6] = molecular target: T2, human lymphotoxin beta receptor (LTbR); remark: listed apart in the source
# [7] = molecular target: T1, human herpes virus entry mediator (HVEM); remark: listed apart in the source
# [8] = molecular target: T2, human lymphotoxin beta receptor (LTbR); remark: listed apart in the source
# [9] = molecular target: T1, human herpes virus entry mediator (HVEM); remark: listed apart in the source
# T2 sequence (P36941 31-435): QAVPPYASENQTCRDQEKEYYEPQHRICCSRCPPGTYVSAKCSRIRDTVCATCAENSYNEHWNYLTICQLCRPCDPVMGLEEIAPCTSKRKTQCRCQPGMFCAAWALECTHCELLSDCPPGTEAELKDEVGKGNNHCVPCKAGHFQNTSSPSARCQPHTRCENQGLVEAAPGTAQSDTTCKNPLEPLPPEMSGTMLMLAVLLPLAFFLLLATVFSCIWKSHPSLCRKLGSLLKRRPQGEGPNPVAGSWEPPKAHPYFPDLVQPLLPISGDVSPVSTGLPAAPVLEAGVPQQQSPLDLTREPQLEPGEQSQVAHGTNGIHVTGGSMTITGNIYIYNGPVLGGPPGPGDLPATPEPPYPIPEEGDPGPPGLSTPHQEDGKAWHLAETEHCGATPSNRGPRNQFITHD
binder,measurement,setting,value
B1,EC50 [pM]: Lymphotoxin beta receptor Reporter Assay,[1],31.3 pM
same,"masking efficiency, HVEM Reporter Assay (EC50 against control ProC1188 or protease-activated ProC1192)",[2],> 20 fold
same,EC50 [nM]: HVEM Reporter Assay,[3],25.6 nM
B2,EC50 [nM]: HVEM Reporter Assay,[4],0.86 nM
same,EC50 [nM]: HVEM Reporter Assay,[5],0.58 nM
B3,EC50 [pM]: Lymphotoxin beta receptor Reporter Assay,[6],2 pM
same,EC50 [nM]: HVEM Reporter Assay,[7],0.999 nM
B4,EC50 [pM]: Lymphotoxin beta receptor Reporter Assay,[8],5.3 pM
same,EC50 [pM]: Lymphotoxin beta receptor Reporter Assay,[1],5.3 pM
same,EC50 [nM]: HVEM Reporter Assay,[3],1 nM
same,EC50 [nM]: HVEM Reporter Assay,[9],0.843 nM
